Source: patent US20230391890A1 (CORNELL UNIVERSITY, published 2023)

What was measured:
[1] = target: T1, native CEMIP/KIAA1199 expressed on the surface of human cancer cells (human, UniProt Q8WUJ3 31-1361); assay: flow cytometry on MKN45 cells
T1 construct: Endogenous CEMIP of MKN45 gastric and N2LA lung cancer cells in flow cytometry; The same entry is used for CEMIP on exosomes of brain tropic MDA-MB231 cells in the brain slice assay; also called native cell surface CEMIP/KIAA1199; CEMIP on MKN45 and N2LA cells
T1 sequence: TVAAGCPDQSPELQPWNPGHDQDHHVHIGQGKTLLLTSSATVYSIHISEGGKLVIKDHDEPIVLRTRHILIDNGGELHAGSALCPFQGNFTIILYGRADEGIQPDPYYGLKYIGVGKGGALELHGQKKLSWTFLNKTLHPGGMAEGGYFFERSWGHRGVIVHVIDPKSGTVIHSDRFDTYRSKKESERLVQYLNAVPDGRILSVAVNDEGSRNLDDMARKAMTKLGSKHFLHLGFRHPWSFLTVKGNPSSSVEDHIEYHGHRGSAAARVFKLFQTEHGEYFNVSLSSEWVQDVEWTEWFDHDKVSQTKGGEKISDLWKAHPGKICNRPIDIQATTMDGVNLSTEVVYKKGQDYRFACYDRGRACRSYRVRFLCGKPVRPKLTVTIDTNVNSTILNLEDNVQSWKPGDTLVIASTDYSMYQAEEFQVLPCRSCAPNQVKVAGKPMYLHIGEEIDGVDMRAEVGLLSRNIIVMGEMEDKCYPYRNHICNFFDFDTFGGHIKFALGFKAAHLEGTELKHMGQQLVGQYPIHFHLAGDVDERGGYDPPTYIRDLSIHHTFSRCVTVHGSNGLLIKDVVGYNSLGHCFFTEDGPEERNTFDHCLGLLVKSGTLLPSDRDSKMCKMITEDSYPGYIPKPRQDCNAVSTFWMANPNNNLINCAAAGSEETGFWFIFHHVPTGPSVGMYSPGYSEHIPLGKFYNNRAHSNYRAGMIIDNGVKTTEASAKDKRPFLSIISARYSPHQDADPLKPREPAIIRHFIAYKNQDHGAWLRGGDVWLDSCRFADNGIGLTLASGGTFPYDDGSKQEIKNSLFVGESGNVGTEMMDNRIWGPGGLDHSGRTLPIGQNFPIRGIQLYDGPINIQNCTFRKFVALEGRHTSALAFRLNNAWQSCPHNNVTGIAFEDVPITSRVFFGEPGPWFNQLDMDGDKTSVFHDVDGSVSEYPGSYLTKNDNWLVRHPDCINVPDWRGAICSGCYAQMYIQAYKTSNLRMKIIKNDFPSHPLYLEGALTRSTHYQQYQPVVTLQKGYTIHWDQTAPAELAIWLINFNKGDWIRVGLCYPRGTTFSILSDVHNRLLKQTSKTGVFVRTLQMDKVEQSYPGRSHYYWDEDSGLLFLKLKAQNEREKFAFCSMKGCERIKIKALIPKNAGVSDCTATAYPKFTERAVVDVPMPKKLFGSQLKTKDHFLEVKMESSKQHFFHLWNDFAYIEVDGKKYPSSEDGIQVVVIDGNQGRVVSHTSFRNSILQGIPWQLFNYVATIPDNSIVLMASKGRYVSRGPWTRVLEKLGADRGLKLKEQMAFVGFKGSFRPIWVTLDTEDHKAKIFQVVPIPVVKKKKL

[2] = target: T2, purified KIAA1199/CEMIP protein (aa 1-649) (human, UniProt Q8WUJ3 31-649); assay: ELISA on recombinant CEMIP, purified antibody
T2 construct: also called recombinant KIAA1199/CEMIP protein
T2 sequence: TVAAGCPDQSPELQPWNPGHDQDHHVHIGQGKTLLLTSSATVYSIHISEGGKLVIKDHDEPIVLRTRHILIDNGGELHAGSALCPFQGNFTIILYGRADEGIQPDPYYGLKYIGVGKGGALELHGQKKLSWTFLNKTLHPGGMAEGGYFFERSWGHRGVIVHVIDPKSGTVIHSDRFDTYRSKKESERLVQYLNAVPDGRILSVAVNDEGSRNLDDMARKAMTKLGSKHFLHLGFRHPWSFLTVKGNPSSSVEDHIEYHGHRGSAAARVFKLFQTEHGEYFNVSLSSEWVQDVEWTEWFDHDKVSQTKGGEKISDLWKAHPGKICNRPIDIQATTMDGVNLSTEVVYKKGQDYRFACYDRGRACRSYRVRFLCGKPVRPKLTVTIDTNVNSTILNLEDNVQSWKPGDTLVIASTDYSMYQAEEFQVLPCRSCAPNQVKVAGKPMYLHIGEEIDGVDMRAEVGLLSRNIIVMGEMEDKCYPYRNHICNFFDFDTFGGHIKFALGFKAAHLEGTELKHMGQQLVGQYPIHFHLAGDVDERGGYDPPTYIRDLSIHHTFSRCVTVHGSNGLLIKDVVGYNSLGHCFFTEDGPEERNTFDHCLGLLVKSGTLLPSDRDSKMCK

[3] = target: T1, native CEMIP/KIAA1199 expressed on the …; assay: cell-based or functional assay

B1: 12A12 (cAb5776) (antibody, mouse IgG1, kappa, V domains shown)
VH: EVQLQQSGPELVKPGVSMKISCKASGYSFTAYTMNWVKQSHGENLEWIGLINPYNGGTTYNQKFKGKATLTVDKSSSTAYMELLSLTSEDSAVYYCASYDYGYAMDYWGQGTSVTVSS
VL: DVLMTQTPLSLPVSLGDQASISCRSSQSIVHRSGNTYLEWYLQKPGQSPKLLIYKVSNRFSGVPDRFSGSGSGTDFTLKISRVEAEDLGVYYCFQGSHVPWTFGGGTKLEIKR
notes: Mouse monoclonal antibody from a hybridoma (supernatant, later purified)
[1]
  binding result: binds
[2]
  binding result: binds

B2: 12D02 (cAb5775) (antibody, mouse IgG1, kappa, V domains shown)
VH: EVQLQQSGPELVKPGASMKISCKASGYSFTAYTMNWVKQSHGENLEWIGLINPYNGGTTYNQKFKGKATLTVDKSSSTAYMELLSLTSEDSAVYYCASYDYGYAMDYWGQGTSVTVSS
VL: DVLMTQTPLSLPVSLGDQASISCRSSQSIVHRNGNTYLEWYLQKPGQSPKLLIYKVSNRFSGVPDRFSGSGSGTDFTLKISRVEAEDLGVYYCFQGSHVPWTFGGGTKLEIKR
notes: as for B1
[1]
  binding result: binds
[2]
  binding result: binds

B3: 13G04 (cAb5778) (antibody, mouse IgG1, kappa, V domains shown)
VH: EVHLQQSGPELVKPGASMKISCKASGYSFTAYTMNWVKQSHGKNLEWIGLINPYNGGTTYNQKFKGKATLTVDKSSSTAYMELLSLTSEDSAVYYCASYYGGRGWYFDVWGAGTSVTVSS
VL: DIVLTQSPASLAVSLGQRATISCRASKSVSTSGYSYVHWYQQKPGQPPKLLIYLASNLESGVPARFSGSGSGTDFTLNIHPVEEEDAATYYCQNSRELPYTFGGGTKLEMKR
notes: as for B1
[1]
  binding result: binds
[2]
  binding result: binds

B4: 12D08 (cAb5777) (antibody, mouse IgG2a, kappa, V domains shown)
VH: EVQLQQSGAELVKPGASVKLSCTASGFNIKDTYMHWVKQRPEQGLIWIGNIDPANGHTKYAPKFQGKATITADTSSNTAYLQLSSLTSEDTAVYYCARSNDYDVDFDYWGQGTTLTVSS
VL: DIVMSQSPSSLAVSAGEKVTMSCKSSQSLLNSRTRKNYLAWYQQKPGQSPKLLIYWASTRESGVPDRFTGSGSGTDFSLTISSVQAEDLAVYYCKQSYNLYTFGGGTKLEIKR
notes: as for B1
[1]
  binding result: binds
[2]
  binding result: binds

B5: 07F11C02 (cAb4853) (antibody, mouse IgG2a, kappa, V domains shown)
VH: DVQLVESGGGLVQPGGSRKLSCAASGFAFSSFGMHWVRQAPERGLEWVAYISSASNTIYYADTVKGRFTISRDNPKSTLFLQMTSLRSEDTAIYYCAKRDWDLYAMDYWGQGTSVTVSS
VL: DIVMTQSQKFLSTSVGDRVTITCKASQNVGTAVAWYQQKPGQSPELLIYSASNRHTGVPARFTGSGSGTDFTLTITNMQSEDLADYFCQQYSSSPTFGGGTKLESKR
[3]
  GFP+ parental MDA-MB231 cells on the slice, 3D organotypic brain slice assay, CEMIP-positive exosomes pre-incubated with antibody: 6 fold decrease
